From the nanobody polyreactivity screen of Harvey et al. (2022)

Experiment: yeast display, Sf9 membrane polyspecificity reagent, FACS + sequencing; frameworks hold sequencing errors
Outline: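 In a synthetic yeast display library (Saccharomyces cerevisiae BJ5465), nanobody expression was induced with galactose for 36–48 hours. FACS gates were set low and high (top ~1%) using anti-HA fluorescence for expression and streptavidin fluorescence for binding of the Sf9 membrane reagent. Each polyreactivity label is drawn from the gate of origin.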

QVQLVESGGGLVQEGGILPLSCAASGFIFGDYVMGWYRQAPGKERELVAAINRNGGRTYYADSVKGRFTISRDYAKNTVYLQMNSLKPEDTAVFYCAAVFRSDRYHWYYYWGQGTQVTVSS
polyreactivity (PSR sort gate): high polyreactivity

QVQLVESGGGLVQEGGILRLICAASGIIFPIYAMGWYRQAPGKERELVAAISQSGASTYYADSVKGRFTISRDNAKNTVYLALNSLKPEDTAVYYCAALNGDGPWQLSSEEFVYWGQGTQVTVSS
polyreactivity (PSR sort gate): low polyreactivity

QVQLVESGGGLVQEGGRLRLSCAASGRIFWDNDMGWYRQAPGKERELVAAISRRGGSTSYADSVKGRFTISRDNAKNTVYLQMNSLKPEDTAVFYCNVRTRWTRVRRYDYWGQVTQVTVSS
polyreactivity (PSR sort gate): high polyreactivity

QVQLVESGGGLVQEGGSLRISCAASGRTFIGYTIGWYRQAPRKERELFAAITWNGGRTYYADSVKGRFTISRDNAKNTVYLQMNSLKPEVTAVYYCAAPRRVVIGGGDYWGQGTQVTVSS
polyreactivity (PSR sort gate): high polyreactivity

QVQLVESGGGLVQEGGSLRLICAASGRTVNTNALGLYRQAPGKEREFVAAISRSGGSTRYADSVKGRFTISRDNAKNTVYLQLNSLKPEDTAVYYCAAVRFRPRGNEYWGQGTQVTVSS
polyreactivity (PSR sort gate): high polyreactivity

QVQLVESGGGLVQEGGSLRLICAASGSTFWANAMGWYRQEPGKERELVAAISVRGGNTYYADSVKGRFTISRDNAKNTVYLQMNSLKAEVTAVYYCAARPISWTSYYDYWGQGTQVTVSS
polyreactivity (PSR sort gate): high polyreactivity

QVQLVESGGGLVQEGGSLRLNCAASGRTFFRNTMGWYRQAPRKDSELFATISSSGGSTYYADSVKGLFTISRDTAKNTVYLQMNSLKPEDTAVYYCAAAPSKWYYGYGYWGQGTQVTVSS
polyreactivity (PSR sort gate): high polyreactivity

QVQLVESGGGLVQEGGSLRLSCAACGRTFSWYAMGWYRQAPGKDRELVAAITSGGSTYYADSVKGRFTISRDNAMNTVYLQMNSLKPEDTAVYYCAAQAYVEGVYRYDYWGQGTQVTVSS
polyreactivity (PSR sort gate): low polyreactivity

QVQLVESGGGLVQEGGSLRLSCAASGFTFRYYTMGWYRQATGKERELVATITWSGGGTYYADSVKGRFTISRDNAKNTVYLQRISLKPVDSAVYYCTAGLFYKAQYGYWGKGTQVTVSS
polyreactivity (PSR sort gate): high polyreactivity

QVQLVESGGGLVQEGGSLRLSCAASGFTFSLNTMGWYRQAPGKERELVAAINSGDSTYADSVKGRFTISRDNAKNTVYLQMNSLKPEDTAVYYCNADPDWWYPYNYWGQGTQVTVSS
polyreactivity (PSR sort gate): low polyreactivity

QVQLVESGGGLVQEGGSLRLSCAASGIIFLWYTMGWYRQAPGKERELVATISWAGGSTYADSVKGRFTISRDNAKNTVYLPMNSLKPEDTAVYYCNTEIYVDIISDYGYWGQGTQVTVSS
polyreactivity (PSR sort gate): low polyreactivity

QVQLVESGGGLVQEGGSLRLSCAASGITFGSYAMGWYRQAPGKERELVAAIDTSGDDTYYADSVKGRFTISRDNAKYTVYLQMNSLKPEDTAVYYCAADFPSAEVDYWGQGTQVTVSS
polyreactivity (PSR sort gate): low polyreactivity

QVQLVESGGGLVQEGGSLRLSCAASGITFGTNAMGWYRQAPGKERELVAAIRRDGSTYYADSVKGRFTISRDNAKNTVYLQMNSLKPEDTAVYYCAATYWGRAYQGYRNLLYGYWGQGTQVTVSS
polyreactivity (PSR sort gate): high polyreactivity

QVQLVESGGGLVQEGGSLRLSCAASGRIFYSNAMGWYRQAPGKERENVAAISWSGGGTYYADSVKGRFTISRDNAKNTVYLQMNSLKPEDTAVYYCAAVFGYSWAFEYDYWGQGTQVTVSS
polyreactivity (PSR sort gate): low polyreactivity

QVQLVESGGGLVQEGGSLRLSCAASGRILYGYAMGWYRQAPGKERELVASITSSGGSKYADSVKGRFTISRDNAKNTVYLQMNSLKPEDTAVYYGATRRGPKWQWLTYGYWGQGTQVTVSS
polyreactivity (PSR sort gate): low polyreactivity

QVQLVESGGGLVQEGGSLRLSCAASGRISYIYAMGWYRQAQGKERELVAAITRGGSTNYADSVKGCFTISRDNAKNTVYLQMNSLKPEDTAVYYCAARRRRSGGYEYDYWGQGTQVTVSS
polyreactivity (PSR sort gate): high polyreactivity

QVQLVESGGGLVQEGGSLRLSCAASGRTFAYNVKGRYRQAPGKVRELVAGISFGAGSTYYADSVKGRFTISRDNAKNTVYLHMNSLKPEDTAVYYCATRRRGTRYPRGYDYWGQGTQVTVSS
polyreactivity (PSR sort gate): high polyreactivity

QVQLVESGGGLVQEGGSLRLSCAASGRTFDSYTMGWYRPAPGKQRELVADITFTGGSTYYADTVKGRFTISRDNAKYIVFLQMNSLKPEDTAVYYCNADREYKWYFRYDYWGQGTQVNVSS
polyreactivity (PSR sort gate): low polyreactivity

QVQLVESGGGLVQEGGSLRLSCAASGRTFSYNAMGWYSQAPGKERELFAAITGRGGSTYYADSVKGRFTISRDNAKKTVYLQMNRLKPEVTAVYYCNAVDAGYHRDRDYWGLGTQVTVSS
polyreactivity (PSR sort gate): low polyreactivity

QVQLVESGGGLVQEGGSLRLSCAASGRTFYRNAMGWYRQAPGKERELVAAISSDDSTNYADSVKGRFTISRDNAKNTVYLQMNSLKPEDTAVYYCNADYYYGYEYDYWGQGSQVTVSS
polyreactivity (PSR sort gate): low polyreactivity

QVQLVESGGGLVQEGGSLRLSCAASGRTFYTNAMGWYRPAPGKERELVAVISRGGTTFYADSVKGRFTISRDNAKNTVYLQMNSLKPEDTAVYYCAKQRPSGDSSSQMGSWGQGTQVTVSS
polyreactivity (PSR sort gate): low polyreactivity

QVQLVESGGGLVQEGGSLRLSCAASGRTSGFNTMGWYRQAPRKERELVAAISFSGGSTYYADSVKGRFTISRDNAKNTVYLQMNSLNPEDTAVYYCNALYRYLYRSGDYWGHGTQVTVSS
polyreactivity (PSR sort gate): low polyreactivity
